Assay results as given in patent US6103872A, “CAPON: a protein associated with neuronal nitric oxide synthase” (The Johns Hopkins University, priority 1998, dated 2000).

B1: 125 amino acid C-terminal fragment of CAPON: Gal4 activation domain fusion of the last 125 amino acids of CAPON (protein)
chain: SGALPVLCESTTPKPEDLHSPLLGAGLADFAHPVGSPLGRRDCLVKLECFRFLPAEDNQPMAQGEPLLGGLELIKFRESGIASEYESNTDESEERDSWSQEELPRLLNVLQRQELGDSLDDEIAV
B2: GST-CAPON: GST fusion protein consisting of CAPON amino acids 379-503 (C-terminal 125 amino acids) (protein)
chain: B1 chain

Legend:
PSD95 = assay: Yeast two-hybrid interaction with PSD95 PDZ domains (amino acids 20-364); assay type: cell-based
From the text: (§1) FIGS. 1A-1C. Cloning of the CAPON cDNA and distribution of CAPON mRNA. […] Yeast were transformed with the indicated Gal4 activation domain (AD) and Gal4 DNA-binding domain (BD) plasmids and grown on plates […] histidine. A typical filter lift is shown in which b-galactosidase activity was detected by the appearance of a blue precipitate. pAD-CAPON1, comprising the last 125 amino acids of CAPON, activates lacZ transcription in the presence of pBD-nNOS (2-377) but not with plasmids the first three PDZ domains of PSD95 (amino acids 20-364) or the second PDZ domain of PSD93 (amino acids 116-421).
(§2) We conducted a yeast two-hybrid screen employing the first 377 amino acids of nNOS, a region which includes the PDZ domain that comprises the first 100 amino acids of nNOS. […] The CAPON two-hybrid clones share a common carboxyl terminus and are predicted to translate into 125 and 327 amino acid peptides followed by a stop codon. […] Moreover, nNOS fails to interact with another control protein, c-fos. To obtain a full-length CAPON cDNA, we screened a rat brain cDNA library with the larger two-hybrid clone and isolated a 2100 bp cDNA which overlapped with the two-hybrid clone and was used to assemble a final 2820 bp cDNA (see Methods). The conceptual translation of this cDNA produces a 503 amino acid protein (FIG. 1B SEQ ID NO:4). […]

PSD93 = assay: Yeast two-hybrid interaction with PSD93 second PDZ domain (amino acids 116-421); assay type: cell-based
From the text: as §1, §2

nNOS [1] = assay: Yeast two-hybrid interaction with nNOS (2-377); assay type: cell-based, rat
From the text: as §1
We conducted a yeast two-hybrid screen employing the first 377 amino acids of nNOS, a region which includes the PDZ domain that comprises the first 100 amino acids of nNOS. […]
Two-hybrid screens and the construction of the parent vectors pPC86, containing the GAL4-activation domain, and pPC97, containing the GAL4-DNA binding domain, have been described (Jaffrey and Snyder, 1996). Plasmid pBD-NOS(2-377) was prepared by the insertion of an nNOS PCR product corresponding to amino acids 2-377 of rat nNOS into the Sal I and Bgl II sites of pPC97, resulting in an open reading frame encoding a GAL4 BD-NOS fusion protein (Jaffrey and Snyder, 1996). […]

iNOS = assay: GST-fusion protein binding assay with lysates of transfected HEK293 cells, iNOS; conditions: Western blot
Method: (§3) (FIG. 2A) CAPON binds to nNOS, but not eNOS or iNOS. Bacterially expressed GST, GST-PIN, and GST-CAPON were bound to glutathione agarose and then incubated with lysates of HEK293 cells transfected with expression plasmids for the indicated isoforms of NOS. After extensive washing of the resins, bound NOS was detected with isoform specific antibodies. […] Input=10% of starting material applied to each resin.
(§4) To assess the specificity of interactions between CAPON and nNOS, we evaluated the binding of a GST-CAPON fusion protein, consisting of C-terminal 125 amino acids of CAPON, with nNOS, eNOS and inducible NOS (iNOS) (FIG. 2A). Lysates of HEK-293 cells transfected with expression plasmids for each of the three forms of NOS were incubated with GST-CAPON. […] No interactions are evident with the GST control. […]
(§5) The material remaining on the resin was eluted with SDS-PAGE sample buffer and nNOS was detected by immunoblot using antibodies specific to each NOS isoform (Transduction Labs). […]

eNOS = assay: GST-fusion protein binding assay with lysates of transfected HEK293 cells, eNOS; conditions: Western blot
Method: as §3, §4, §5

nNOS [2] = molecular target: nNOS (Rattus norvegicus, UniProt P29476); assay: GST-fusion protein binding assay with lysates of transfected HEK293 cells, nNOS; design: expressed in transfected cells; host or cells: HEK293; conditions: Western blot
Sequence of nNOS (Rattus norvegicus, UniProt P29476) (P29476 whole entry, the tested form may be a part): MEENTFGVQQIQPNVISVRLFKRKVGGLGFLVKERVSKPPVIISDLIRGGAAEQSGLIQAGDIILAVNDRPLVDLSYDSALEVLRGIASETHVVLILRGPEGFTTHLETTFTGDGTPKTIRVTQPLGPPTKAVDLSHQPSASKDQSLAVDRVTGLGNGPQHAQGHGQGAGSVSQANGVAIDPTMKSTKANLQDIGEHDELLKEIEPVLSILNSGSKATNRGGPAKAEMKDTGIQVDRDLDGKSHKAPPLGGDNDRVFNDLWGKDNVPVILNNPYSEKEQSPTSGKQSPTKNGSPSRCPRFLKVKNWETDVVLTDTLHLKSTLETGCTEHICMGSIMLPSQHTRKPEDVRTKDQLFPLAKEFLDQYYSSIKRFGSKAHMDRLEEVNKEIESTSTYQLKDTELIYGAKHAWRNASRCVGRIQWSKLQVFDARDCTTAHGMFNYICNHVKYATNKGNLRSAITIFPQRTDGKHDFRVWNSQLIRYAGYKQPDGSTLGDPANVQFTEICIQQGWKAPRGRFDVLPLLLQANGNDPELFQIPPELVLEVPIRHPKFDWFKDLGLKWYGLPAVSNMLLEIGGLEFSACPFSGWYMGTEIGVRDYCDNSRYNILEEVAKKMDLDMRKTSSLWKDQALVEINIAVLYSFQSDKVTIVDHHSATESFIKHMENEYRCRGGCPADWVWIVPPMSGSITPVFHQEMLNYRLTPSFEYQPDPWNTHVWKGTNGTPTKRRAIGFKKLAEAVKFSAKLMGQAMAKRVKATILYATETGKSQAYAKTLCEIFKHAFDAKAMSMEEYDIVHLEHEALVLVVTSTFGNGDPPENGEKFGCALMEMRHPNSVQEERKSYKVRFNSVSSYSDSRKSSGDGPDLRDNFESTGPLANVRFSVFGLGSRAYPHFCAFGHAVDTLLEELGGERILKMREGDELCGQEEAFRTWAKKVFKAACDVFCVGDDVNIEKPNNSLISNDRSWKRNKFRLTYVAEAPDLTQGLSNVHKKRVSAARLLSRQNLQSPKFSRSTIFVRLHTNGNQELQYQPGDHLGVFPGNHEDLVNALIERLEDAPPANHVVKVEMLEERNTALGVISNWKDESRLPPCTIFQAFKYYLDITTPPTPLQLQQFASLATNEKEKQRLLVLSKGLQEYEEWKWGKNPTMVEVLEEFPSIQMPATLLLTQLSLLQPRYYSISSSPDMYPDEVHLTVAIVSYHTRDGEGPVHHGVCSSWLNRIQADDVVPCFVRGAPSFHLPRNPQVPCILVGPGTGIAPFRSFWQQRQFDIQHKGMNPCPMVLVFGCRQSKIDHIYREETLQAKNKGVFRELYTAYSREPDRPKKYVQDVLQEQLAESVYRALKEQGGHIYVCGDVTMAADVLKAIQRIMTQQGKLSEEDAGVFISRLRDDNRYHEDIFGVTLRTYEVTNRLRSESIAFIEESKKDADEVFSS
Method: as §3
(FIG. 4B) The C-terminal 13 amino acids of CAPON are sufficient for binding to nNOS. Various GST-CAPON fusion proteins were incubated with HEK293 lysates containing nNOS. A CAPON fusion protein comprising the last 100 amino acids binds nNOS, as do fusion proteins comprising the last 13 or 20 amino acids of CAPON.
as §4, §5

Molecule	interaction with PSD95 fragment in the two-hybrid system (PSD95)	interaction with PSD93 fragment in the two-hybrid system (PSD93)	interaction with nNOS in the two-hybrid system (nNOS [1])	binding of iNOS to immobilized GST-fusion protein (iNOS)	binding of eNOS to immobilized GST-fusion protein (eNOS)	binding of nNOS to immobilized GST-fusion protein (nNOS [2])
B1	failure of CAPON to interact	failure of CAPON to interact	specifically interacts	–	–	–
B2	–	–	–	do not interact	do not interact	interacts strongly
